Measurements from patent US20120172306A1, “Use of HASF as a Protective Agent Against Ischemic Tissue Damage” (Duke University, priority 2009, published 2012).

Tests used:
adult rat cardiomyocytes = assay: DNA fragmentation and apoptosis-related protein western blotting; format: cell-based
Procedure: FIGS. 7A-C are a series of photographs showing the effects of HASF in cytochrome c, Bcl2, Bax and DNA degradation. In FIG. 7A, Adult rat cardiomyocytes were treated with +10 nM of HASF for 30 min, and then challenged with 100 μM of H2O2 for 6 h. Mitochondrial fraction or cytosolic fraction or total cell lysate were extracted and separated in 15% SDS-PAGE and transferred to nitrocellulose membrane and probed with mouse anti-Cytochrome C monoclonal antibody. Lane 1-2, —H2O2 control; lane 3-4, +H2O2 control; lane 5-8, four individual samples of +HASF recombinant protein and then +H2O2. In FIG. 7B, Western blot of mitochondrial fractions with Bcl2 and Bax antibodies respectively. Lane 1, —H2O2control; lane 2, +H2O2control; lane 3-6, four individual samples of +HASF and then +H2O2. In FIG. 7C, adult rat cardiomyocytes were treated +10 nM of HASF for 30 min, and then challenged with 100 μM of H2O2 for overnight (˜15 h). Genomic DNA was extracted and separated on 1% agarose gel. H2O2 induced apoptosis in cardiomyocytes was companied by typical DNA fragmentation (laddering) at late-stage apoptosis. Pre-incubation of cardiomyocytes with 10 nM of this HASF recombinant protein inhibited the DNA laddering to a noticeable extends. Lane 1, DNA marker; lane 2, —H2O2control; lane 3-4, +H2O2; lane 5-6, +HASF recombinant protein and then +H2O2.
Adult rat ventricular cardiomyocytes were isolated from 6 weeks old female Sprague-Dawley rat (Harlan World Headquarters, Indianapolis, Ill., USA) hearts by enzymatic digestion and were seeded in (6-well) plates or Delta T culture dishes (Bioptechs, Inc., Pa.) pre-coated with 1 μg/cm2 of laminin (Sigma) at 5×10^4/well and cultured overnight in serum-free M199 medium (Sigma), supplemented with 2 mM of L-carnitine, 5 mM of creatine, 5 mM of taurine, 0.2% of albumin, 100 U/ml of penicillin and 100 μg/ml of streptomycin. Cells were briefly treated without or with PKC inhibitor (with vehicle saponin), then recombinant protein HASF (10 or 100 nM) was added into cells for 30 min, with PBS used as vehicle controls. The cells were challenged with H2O2 for various time points. For the Caspase assays, cardiomyocytes were scraped off plates in lysis buffer and were analyzed by a luminescent plate reader with Caspase-Glo 3/7 and or Caspase-Glo 9 kits (Promega); and for DNA fragmentation, genomic DNA from cardiomyocytes was extracted and separated on 1% agarose gel electrophoreses, with Apoptotic DNA Ladder Extraction Kit (BioVision), according to manufacturers' instructions. […]

[1] = test system: primary embryonic rat neurons; assay: Caspase 9 assay in H2O2 challenged primary neurons; format: cell-based; conditions: H2O2 (50 μM) 30 min
Procedure: FIG. 2E is a bar graph showing caspase activity in primary neurons. Embryonic rat neuronal cells were pre-incubated ±100 nM of HASF recombinant protein for 30 min, and then challenged with 200 μM of H2O2 […]. Apoptosis was determined by caspase 9 levels. The results from two independents experiments are shown. ** P<0.01. Data are presented as means±standard deviation of triplicates.
FIG. 4E is a bar graph showing relative caspase activity in primary neurons. Apoptosis as determined by detection of Caspase-9 activity on primary neuron pre-treated with 178 μM PKC translocation inhibitor peptide for 10 minutes and then with 100 nM of HASF for 30 minutes. Thereafter, cells were challenged with 200 μM H2O2 for 3 hours. All samples were measured in replicas N-4 and the experiments was repeated twice. *P<0.05 vs. non-HASF treated cells.
Embryonic rat cortex tissue was purchased from Neuromics (Edina, Minn.). Primary neurons were isolated, cultured on poly-D-lysine coated glass slides according to provided instructions and allowed to grow for 5 days in complete neurobasal media. Cells were treated with PKC-epsilon inhibitor and recombinant protein HASF as described above for cardiomyocytes). For induction of stress the cells were challenged with H202 (50 μM) for 30 min followed by 3 hours of recovery at 37° C. […]

[2] = test system: rat myocardial infarction; assay: In vivo ischemia/reperfusion injury, fibrosis (Masson's trichrome); conditions: 1 μg intramyocardial, 4 weeks after ischemia/reperfusion
Procedure: FIG. 5C is a series of photographs and a bar graph showing fibrosis. For fibrosis analysis, animals were sacrificed 4 weeks after the initial ischemia/reperfusion injury and serial cryosections of 5 μm thick were made immediately below the ligation area, 10 sections for each heart were analyzed. HASF injected group N=8 rats. PBS injected control group N=6. Brilliant blue color stained collagen area was quantified using ImageJ computer software and the mean of % fibrosis was calculated as collagen positive area/total area. *** P<0.001.
Female Sprague-Dawley rats were used for all in vivo experiments. A midsternal thoracotomy was performed to expose the anterior surface of the heart after anesthesia. The proximal left […] coronary artery (LAD) was identified and a 6.0 suture (Ethicon) was placed around the artery and surrounding myocardium. […]
For fibrosis analysis, animals were sacrificed 4 weeks after the initial 30 min ischemia/24 h reperfusion injury and serial cyrosections of 5 μm thick were made immediately below the ligation area, 10 sections for each heart analyzed, and with 8 rats in HASF protein injected group and 6 rats in PBS injected control group. […] Brilliant blue color stained collagen area was quantified using ImageJ computer software and the mean of % fibrosis was calculated as collagen positive area/total area.

B1: HASF: Hypoxia regulated Akt MSC Factor, secreted protein encoded by C3orf58; recombinant human protein without N-signal sequence, SEQ ID NO:1 or 2 (protein, UniProt Q8NDZ4 36-430, looked up)
Divergent protein kinase …: LASWQRNELTDRRFLQLNKCPACFGTSWCRRFLNGQVVFEAWGRLRLLDFLNVKNVYFAQYGEPREGGRRRVVLKRLGSQRELAQLDQSICKRATGRPRCDLLQAMPRTEFARLNGDVRLLTPEAVEGWSDLVHCPSQRLLDRLVRRYAETKDSGSFLLRNLKDSERMQLLLTLAFNPEPLVLQSFPSDEGWPFAKYLGACGRMVAVNYVGEELWSYFNAPWEKRVDLAWQLMEIAEQLTNNDFEFALYLLDVSFDNFAVGPRDGKVIIVDAENVLVADKRLIRQNKPENWDVWYESKFDDCDKEACLSFSKEILCARATVDHNYYAVCQNLLSRHATWRGTSGGLLHDPPSEIAKDGRLEALLDECANPKKRYGRFQAAKELREYLAQLSNNVR
modifications: 6xHis tag
mitochondrial anti-apoptotic Bcl-2 protein level (adult rat cardiomyocytes; 10 nM for 30 min, 100 μM H2O2): increased levels
cytochrome C release into the cytosol (adult rat cardiomyocytes; 10 nM for 30 min, 100 μM H2O2 6 h): prevention of cytochrome C release into the cytosol
DNA fragmentation (adult rat cardiomyocytes; 10 nM for 30 min, 100 μM H2O2 overnight (~15 h)): reduction of DNA fragmentation
translocation of Bax protein from cytosol into mitochondria (adult rat cardiomyocytes; H2O2 induced apoptosis): did not prevent
attenuation of Caspase 9 levels ([1]; 30 min pretreatment, P<0.05): 20-40%
Caspase 9 levels in challenged neuronal cells ([1]; HASF 30 min): significantly reduced
reduction of infarct fibrosis compared to control untreated animals [2]: 61%
scar (myocardial fibrosis) [2]: 5.7±1.5 % of LV area
